We go through 5 molecules from patent publication US20220168396A1, “MULTI-RECEPTOR AGONIST AND MEDICAL USE THEREOF” (published 2022).

The target of test [1] is human glucagon-like peptide-1 receptor (human, UniProt P43220). Description: cell-based or functional assay.
The target in test [2] is T1, human glucose-dependent insulinotropic peptide receptor (human, UniProt P48546).
T1 sequence: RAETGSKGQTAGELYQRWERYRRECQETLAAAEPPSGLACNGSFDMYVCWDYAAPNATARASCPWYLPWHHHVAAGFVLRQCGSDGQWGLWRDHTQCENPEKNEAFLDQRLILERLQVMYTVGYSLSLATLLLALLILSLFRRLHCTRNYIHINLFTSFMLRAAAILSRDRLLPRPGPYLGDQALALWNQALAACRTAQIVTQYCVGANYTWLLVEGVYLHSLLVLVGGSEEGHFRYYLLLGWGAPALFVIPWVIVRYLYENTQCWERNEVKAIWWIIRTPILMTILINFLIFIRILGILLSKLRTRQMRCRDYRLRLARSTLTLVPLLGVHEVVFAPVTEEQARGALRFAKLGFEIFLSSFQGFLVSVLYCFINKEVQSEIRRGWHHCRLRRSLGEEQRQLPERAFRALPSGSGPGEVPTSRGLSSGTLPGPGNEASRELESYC
Kind of test: cell-based or functional assay.

Square brackets hold non-standard residues; d marks the D form. Ends that are not written are not given here. Aib = CC(C)(N)C(=O)O

B1: Compound No. 8 (peptide)
peptide: Y[Aib]EGTFTSDVSIYLEKEAAEEFVNWLLAGGPSSGAPPPSK-NH2
modifications: N-terminus assumed
SMILES: CC[C@H](C)[C@H](NC(=O)[C@H](CO)NC(=O)[C@@H](NC(=O)[C@H](CC(=O)O)NC(=O)[C@H](CO)NC(=O)[C@@H](NC(=O)[C@H](Cc1ccccc1)NC(=O)[C@@H](NC(=O)CNC(=O)[C@H](CCC(=O)O)NC(=O)C(C)(C)NC(=O)[C@@H](N)Cc1ccc(O)cc1)[C@@H](C)O)[C@@H](C)O)C(C)C)C(=O)N[C@@H](Cc1ccc(O)cc1)C(=O)N[C@@H](CC(C)C)C(=O)N[C@@H](CCC(=O)O)C(=O)N[C@@H](CCCCN)C(=O)N[C@@H](CCC(=O)O)C(=O)N[C@@H](C)C(=O)N[C@@H](C)C(=O)N[C@@H](CCC(=O)O)C(=O)N[C@@H](CCC(=O)O)C(=O)N[C@@H](Cc1ccccc1)C(=O)N[C@H](C(=O)N[C@@H](CC(N)=O)C(=O)N[C@@H](Cc1c[nH]c2ccccc12)C(=O)N[C@@H](CC(C)C)C(=O)N[C@@H](CC(C)C)C(=O)N[C@@H](C)C(=O)NCC(=O)NCC(=O)N1CCC[C@H]1C(=O)N[C@@H](CO)C(=O)N[C@@H](CO)C(=O)NCC(=O)N[C@@H](C)C(=O)N1CCC[C@H]1C(=O)N1CCC[C@H]1C(=O)N1CCC[C@H]1C(=O)N[C@@H](CO)C(=O)N[C@@H](CCCCN)C(N)=O)C(C)C
Turning to B1, the “Activity for human GLP-1R (EC50 nM), cAMP HTRF” value (from here on “Activity for human GLP-1R”) in test [1] was 0.07 nM. Besides, the “Activity for human GIPR (EC50 nM), cAMP HTRF” value (“Activity for human GIPR” below) in test [2] stood at 0.12 nM.

B2: Compound No. 5 (peptide)
peptide: H[Aib]EGTFTSDVSSYLEEEAAKEFVNWLLAGGPSSGAPPPSK-NH2
modifications: N-terminus assumed
SMILES: CC(C)C[C@H](NC(=O)[C@H](CC(C)C)NC(=O)[C@H](Cc1c[nH]c2ccccc12)NC(=O)[C@H](CC(N)=O)NC(=O)[C@@H](NC(=O)[C@H](Cc1ccccc1)NC(=O)[C@H](CCC(=O)O)NC(=O)[C@H](CCCCN)NC(=O)[C@H](C)NC(=O)[C@H](C)NC(=O)[C@H](CCC(=O)O)NC(=O)[C@H](CCC(=O)O)NC(=O)[C@H](CCC(=O)O)NC(=O)[C@H](CC(C)C)NC(=O)[C@H](Cc1ccc(O)cc1)NC(=O)[C@H](CO)NC(=O)[C@H](CO)NC(=O)[C@@H](NC(=O)[C@H](CC(=O)O)NC(=O)[C@H](CO)NC(=O)[C@@H](NC(=O)[C@H](Cc1ccccc1)NC(=O)[C@@H](NC(=O)CNC(=O)[C@H](CCC(=O)O)NC(=O)C(C)(C)NC(=O)[C@@H](N)Cc1c[nH]cn1)[C@@H](C)O)[C@@H](C)O)C(C)C)C(C)C)C(=O)N[C@@H](C)C(=O)NCC(=O)NCC(=O)N1CCC[C@H]1C(=O)N[C@@H](CO)C(=O)N[C@@H](CO)C(=O)NCC(=O)N[C@@H](C)C(=O)N1CCC[C@H]1C(=O)N1CCC[C@H]1C(=O)N1CCC[C@H]1C(=O)N[C@@H](CO)C(=O)N[C@@H](CCCCN)C(N)=O
With B2, the “Activity for human GLP-1R” value in test [1] was 0.004 nM. Moreover, in test [2], the “Activity for human GIPR” value was above 10 nM.

B3: Compound No. 9 (peptide)
peptide: Y[Aib]EGTFTSDYSIYLEKEAAKEFVNWLLAGGPSSGAPPPSK-NH2
modifications: N-terminus assumed
SMILES: CC[C@H](C)[C@H](NC(=O)[C@H](CO)NC(=O)[C@H](Cc1ccc(O)cc1)NC(=O)[C@H](CC(=O)O)NC(=O)[C@H](CO)NC(=O)[C@@H](NC(=O)[C@H](Cc1ccccc1)NC(=O)[C@@H](NC(=O)CNC(=O)[C@H](CCC(=O)O)NC(=O)C(C)(C)NC(=O)[C@@H](N)Cc1ccc(O)cc1)[C@@H](C)O)[C@@H](C)O)C(=O)N[C@@H](Cc1ccc(O)cc1)C(=O)N[C@@H](CC(C)C)C(=O)N[C@@H](CCC(=O)O)C(=O)N[C@@H](CCCCN)C(=O)N[C@@H](CCC(=O)O)C(=O)N[C@@H](C)C(=O)N[C@@H](C)C(=O)N[C@@H](CCCCN)C(=O)N[C@@H](CCC(=O)O)C(=O)N[C@@H](Cc1ccccc1)C(=O)N[C@H](C(=O)N[C@@H](CC(N)=O)C(=O)N[C@@H](Cc1c[nH]c2ccccc12)C(=O)N[C@@H](CC(C)C)C(=O)N[C@@H](CC(C)C)C(=O)N[C@@H](C)C(=O)NCC(=O)NCC(=O)N1CCC[C@H]1C(=O)N[C@@H](CO)C(=O)N[C@@H](CO)C(=O)NCC(=O)N[C@@H](C)C(=O)N1CCC[C@H]1C(=O)N1CCC[C@H]1C(=O)N1CCC[C@H]1C(=O)N[C@@H](CO)C(=O)N[C@@H](CCCCN)C(N)=O)C(C)C
In the case of B3, in test [1], the “Activity for human GLP-1R” value was determined as 0.011 nM. Besides, in test [2], the “Activity for human GIPR” value was 0.018 nM.

B4: Compound No. 4 (peptide)
peptide: Y[Aib]EGTFTSDVSSYLEEIHQKEFIAWLVRGGPSSGAPPPSK-NH2
modifications: N-terminus assumed
SMILES: CC[C@H](C)[C@H](NC(=O)[C@H](Cc1ccccc1)NC(=O)[C@H](CCC(=O)O)NC(=O)[C@H](CCCCN)NC(=O)[C@H](CCC(N)=O)NC(=O)[C@H](Cc1c[nH]cn1)NC(=O)[C@@H](NC(=O)[C@H](CCC(=O)O)NC(=O)[C@H](CCC(=O)O)NC(=O)[C@H](CC(C)C)NC(=O)[C@H](Cc1ccc(O)cc1)NC(=O)[C@H](CO)NC(=O)[C@H](CO)NC(=O)[C@@H](NC(=O)[C@H](CC(=O)O)NC(=O)[C@H](CO)NC(=O)[C@@H](NC(=O)[C@H](Cc1ccccc1)NC(=O)[C@@H](NC(=O)CNC(=O)[C@H](CCC(=O)O)NC(=O)C(C)(C)NC(=O)[C@@H](N)Cc1ccc(O)cc1)[C@@H](C)O)[C@@H](C)O)C(C)C)[C@@H](C)CC)C(=O)N[C@@H](C)C(=O)N[C@@H](Cc1c[nH]c2ccccc12)C(=O)N[C@@H](CC(C)C)C(=O)N[C@H](C(=O)N[C@@H](CCCNC(=N)N)C(=O)NCC(=O)NCC(=O)N1CCC[C@H]1C(=O)N[C@@H](CO)C(=O)N[C@@H](CO)C(=O)NCC(=O)N[C@@H](C)C(=O)N1CCC[C@H]1C(=O)N1CCC[C@H]1C(=O)N1CCC[C@H]1C(=O)N[C@@H](CO)C(=O)N[C@@H](CCCCN)C(N)=O)C(C)C
Consider B4, for which, in test [1], the “Activity for human GLP-1R” value was determined as 0.43 nM. The “Activity for human GIPR” value in test [2] is above 10 nM.

B5: Compound No. 6 (peptide)
peptide: Y[Aib]EGTFTSDVSSYLEEEAAKEFVNWLLAGGPSSGAPPPSK-NH2
modifications: N-terminus assumed
SMILES: CC(C)C[C@H](NC(=O)[C@H](CC(C)C)NC(=O)[C@H](Cc1c[nH]c2ccccc12)NC(=O)[C@H](CC(N)=O)NC(=O)[C@@H](NC(=O)[C@H](Cc1ccccc1)NC(=O)[C@H](CCC(=O)O)NC(=O)[C@H](CCCCN)NC(=O)[C@H](C)NC(=O)[C@H](C)NC(=O)[C@H](CCC(=O)O)NC(=O)[C@H](CCC(=O)O)NC(=O)[C@H](CCC(=O)O)NC(=O)[C@H](CC(C)C)NC(=O)[C@H](Cc1ccc(O)cc1)NC(=O)[C@H](CO)NC(=O)[C@H](CO)NC(=O)[C@@H](NC(=O)[C@H](CC(=O)O)NC(=O)[C@H](CO)NC(=O)[C@@H](NC(=O)[C@H](Cc1ccccc1)NC(=O)[C@@H](NC(=O)CNC(=O)[C@H](CCC(=O)O)NC(=O)C(C)(C)NC(=O)[C@@H](N)Cc1ccc(O)cc1)[C@@H](C)O)[C@@H](C)O)C(C)C)C(C)C)C(=O)N[C@@H](C)C(=O)NCC(=O)NCC(=O)N1CCC[C@H]1C(=O)N[C@@H](CO)C(=O)N[C@@H](CO)C(=O)NCC(=O)N[C@@H](C)C(=O)N1CCC[C@H]1C(=O)N1CCC[C@H]1C(=O)N1CCC[C@H]1C(=O)N[C@@H](CO)C(=O)N[C@@H](CCCCN)C(N)=O
Regarding B5, in test [1], the “Activity for human GLP-1R” value amounted to 0.128 nM. Further, in test [2], the “Activity for human GIPR” value is 2.1 nM.
